Data published in paper PMC8196545 (Cell reports, 2021).
Substitutions are numbered along the chain they refer to.

B1: c11405 (antibody, V domains shown)
VH: EARLVESGGGRVQPGGSLRLSCEASGFRFSSYSFTWVRQSPGKGLEWLAKISASPFGRSQVNYAHSVEGRFTISRDNDRNSLRLQMNDLRGADTGVYYCARAPWQERSLDYNYAMDVWGQGTTVIVSS
VL: ELVLTQSPGTLSLSPGERATVSCRASQSLRRDSLAWYQQKPGHSPRLLIFAASNRVPGIPYRFSGTGSGTQFTLTIEKMEPEDFAVYYCQSYGSSPLYTFGQGTKLDIN
B2: c8537 (antibody, V domains shown)
VH: QVHLVESGGGVVQPGKSLRLSCTSSGFTFSNYGFHWVRQAPGKGLEWVSFISNDGSNHFYTQSLRGRFTISRDNSKGTLYLEMNSLRSEDTAIYYCARDLYSRYRGYYDDLTGENHGNFDYWGLGTLVTVSA
VL: NFLLSQSLSVSESPGKTVTISCTRSSGNIASNSVQWYQLRPGSSPTTLIYKNRQRPSGISDRFSGSVDTSSNSASLIISGLKTDDEADYYCQSFDNVNQEWVFGGGTKVTVL
B3: c10859 (antibody, V domains shown)
VH: AGHLVESGGKLIRPGGSLSLSCVASGFTFRNAYLTWVRHIPGKGLEWVAHMKSHADGSHTDYSASVQGRCAISRDDSASTLYLHISNLRLDDTGVYYCVHLSTPDEWGHGTPVIVSS
VL: DVVLTQYPVTLSGSQGDTVALSCRASESLTSHLAWYQQRDGQRPRLLIYDTSHRPPATPPRFSASGSGTDFTLIITSLEPEDSAVYFCQQRDFWPFSFGQGTKLDIT
B4: c9603 (antibody, V domains shown)
VH: EVHLLQSAAEVKKPGSTVKVSCKVSGYTFTDYFLHWIQQTPERGLLWMGFVDPDSGVTVYAENFQGRITMTADTSSDTVYLEISSLTSEDAAVYYCATGSHSYPDTDGNPVYVMAFQYWGQGTLVSVSS
VL: DIVMTQSPDSLGVSLGETATVKCKSSQSILYSSDNKNYLAWYQQKPGQPPKLLIYWASTRESGVPDRFSGSGSETDFTLTINNVQAEDVAVYYCQQYSESPPTFGGGTKVDFK
B5: c5296 (antibody, V domains shown)
VH: QVHLQESAPTLVKTSETLSLTCTVSGGQFYPYFYSWIRQSPGGKLQWIGRKYSTTGSMRTNPSLHTRVGMPLDHSRSQIGLTLSSITAADTGIYYCVRDIMRDFDSVDGSGGVYGGVDVWGRGTTVTVSS
VL: QFLLTQPHSVSGSPGKTITISCTRSDGTFARNSVRWYLQRPGEGPTTVFFDGNRRASGIPDRFSASIAVSSASASLTISGLTPEDEADYYCESSDGGHHVVFGGGTKVTVL
B6: c8540 (antibody, V domains shown)
VH: QVQLLQSGPEVKKPGASVKVSCKTSGYTFTSYAITWVRQAPGEGLEWLGWISPHSRTAKYAQKFQGRLTMTTDTSTATAYMDLRSLSPDDTAVYYCARRIYDWDIERARFDPWGQGTLVAVSS
VL: QSVLTQPPSVSADPGQRVTISCSGSSSNIGKNFVSWYQQLPGTAPKLVIYDNDRRPSGIPDRFSGSKSGTSATLGITGLQTGDEAAYYCATWDSGLNDGPVFGGGTRLTVL
B7: c5250 (antibody, V domains shown)
VH: QVRLEQWGPGLLKPSETLSLTCAVHGESFDDYSWTWIRHTPSLGLQWIGEIRPFGEIVHKSSLSGRLSFSRDTSKRQVYLKLASVTAADAGVYFCARGPVIYQLPHFYYRGYNVWGQGTTVTVSA
VL: DLVVTQSPRSLPVTPGESATIFCRSSQSLRHDNGMHYLDWYLQKPGQSPQLLIYLTSNRASGVSDRFSGSGSGTEFTLKISRVEADDVGIYYCMQAIQDPRVFGQGTRLEIK
B8: c11031 (antibody, V domains shown)
V domain 1: EVRLDQSGAEMRKTGTSVRLSCTISGHTTSDFFIHWVKQAPQRGPQWMGLINVEDENVIFAEGFQGRISIGADTSRTTVFLDLTHLTVEDMALYFCTTHTLEKDTGDYVAAFDSWGHGTFLSVSS
V domain 2: QSVLTQPPSVSAVPGQKVIISCSGRTSNIGTNFVSWYQQFPGAAPKLLIYDTSHRPSGISDRFSASKSDTSATLAITALQPGDEAEYYCGAWDSGLNPAVFVFGSGTRVFVL
B9: c10927 (antibody, V domains shown)
V domain 1: EVRLDQSGTEMRKPGTRVRLSCKVSGHTTSDFFVHWVQQAPQRGPQWMGLINVEDENVIYADIFQGRISIVADTSKKTVFLDLTDLTFEETAIYFCATHTLQKDTGDYVAAFDSWGQGTLLYVSS
V domain 2: B8 V domain 2 with T52N, S53F, H54N, P81A
B10: c10920 (antibody, V domains shown)
V domain 1: EVRLDQSGAEMRKPGTSVRLSCTVSGHRTNDFFIHWVKQDPQRGPLWMGLINVEDENAIYAQEFQGRISIVADSSKTTVFLDLSHLKFEDTALYLCTTHTLEKETGDYVAAFDSWGQGTFLSVSS
V domain 2: B8 V domain 2 with S53F, A91S
B11: c10868 (antibody, V domains shown)
V domain 1: B8 V domain 1 with R12G, I24V, R76K, V88F, A110S, H117Q
V domain 2: B8 V domain 2 with S53F
B12: c4302 (antibody, V domains shown)
VH: QVLLEQSGGEMKKPGASLKVSCQASGYRFTNYGMSWVRQARGQGLEWMGWISAYNGKTIYAQRFQGRVTLTTDTSTRTAYLELRSLTSDDTAVYFCTRSQTYYFDSSDFYDGKYFDYWGQGTLVTVSS
VL: AIQLTQSPSSLSASVGDRVTLTCRASQGISNALAWYQQKPGESPKLLIHAASSLESGVPSRFSGSGSGTDFTLTISGLQAEDFATYYCQQFNSFPLTFGPGTRLEIK
B13: c6486 (antibody, V domains shown)
VH: QPQMIQSGIEVKQPGAAVKVRCKPSGYWFIACGISWVRQAPGRGLEWLGWVYPYNGKVNHAQKFRGRVTLTADRSTETAYMELKSLTSDDTAIYYCARDSEQYDAAMPNYFTQYGMDVWGQGTTVIVSS
VL: EIVLTQSPGTLSLSPGETAALSCRSSQAFTDKGLAWYKQRPGQPPSLFVYGVSKRAAGVPDRVTGSGSGTEYTLTIGRLEPEDSGLYFCQQYHDPARTFGQGTKLEIK
B14: c7565 (antibody, V domains shown)
VH: QVRLEERGPGLVKPSETLSLVCGVSGYTMSGLWSTTYDWNWIRQSAGGRPEWIGRIYVGGPAQYNPAFKDRVAFSIDLSKNELSLTLTSVTAADSATYFCARGGDTFHPRYWYTMNIWGSGTKVIVSS
VL: DIQLTQSPSTVSASVGDRITMSCRANKSLDVWVAWFRRRPGKAPEHLIYRRDYVWGGLPSRFSGSGSGTEFTLTISSLQAGDFGTYYCHQYKDQPWTFGQGTRVDLK
B15: c13230 (antibody, V domains shown)
VH: QVQLVESGGGVVQPGKSLKLSCATSGFNFSTFGIHWVRQAPGKGLEWLTVISYDGSEKFYGESVKGRFTISRDTSKKTVFLQIKSLKTEDTAVYYCAKDRAENRVSTSPLGMYYYFGMDVWGQGTTVIVSS
VL: EIMMTQSPATLSASPGEGVTLSCRASQSVSNDFAWYQQTPGQSPKLLFYDAYTRATGVPARFSVNGSGTDFTLTINSLQSEDFASYYCLQYHKWPPYSFGQGTKLGIK

The binders below were run against HIV-1 NL4-3 Env on infected cells (HIV-1 group M subtype B, NL4-3 (pNL4-3 …, strain)).

Binder	binding result
B1	binds
B2	binds
B3	binds
B4	binds
B5	binds
B6	binds
B7	binds
B8	binds
B9	binds
B10	binds
B11	binds
B12	binds
B13	binds
B14	binds
B15	binds
